From US20160017326A1, “MICRORNAS AS FUNCTIONAL MEDIATORS AND BIOMARKERS OF BONE METASTASIS” (THE TRUSTEES OF PRINCETON UNIVERSITY, priority 2013, published 2016)
Values belong to the molecule of their own block, whether it stands above or below them.

Columns and labels:
[1] = tested on: miRNA expression in RAW264.7 cells; test: qRT-PCR of osteoclast miRNA expression after sICAM1 treatment; assay type: cell-based, murine; conditions: for sICAM1-induced miRNA expression changes: 50 ng/ml sICAM1, 20 μM inhibitor, 6 days
Experimental: (§1) mRNA was analyzed by synthesizing cDNA using the Superscript III First-strand kit (Invitrogen) and qPCR performed using the Power SYBR® green PCR master mix (Applied Biosystems). Mature miRNAs were reverse transcribed using the TaqMan Reverse Transcription Kit (Applied Biosystems) followed by real-time PCR using TaqMan miRNA assays (Applied Biosystems). All analysis was performed using an ABI 7900HT PCR machine according to the manufacturer's instructions. A standard curve was created from serial dilutions from cDNA for each gene of interest. Values were normalized by the expression of GAPDH or RNU6B in each sample.

RANKL = test: cell-based or functional assay
RAW264.7 cells [2] = test: In vitro bone resorption assay on bovine bone slices; assay type: cell-based, murine; conditions: miRNA transfection, 50 ng/ml RANKL, relative to control cells
Experimental: 5×10^4 pre-osteoclast cells were seeded onto 1 mm thick slices of bovine bone cut using a diamond saw and sterilized by immersion in 70% ethanol. Cells were cultured for 10 days as indicated in 6-well plates, transferred to fresh plates and washed to remove osteoclasts. Bone slices were stained in a solution of 1% toludine blue in 0.5% sodium tetraborate, destained in PBS plus 1% Triton X-100, and imaged by light microscopy.
In vitro bone resorption assay was then used to measure the effect of ectopic miRNA expression on osteoclast activity. […] Referring to this figures, scale bar represents 200 μm. Results were statistically significant with p<0.01 (**) and p<0.001 (***). […] Since these miRNAs may inhibit osteoclast differentiation or function by targeting different mRNAs, the repression of osteoclast differentiation was further examined using combinations of inhibitory miRNAs. Given that transient transfection with 10 pM of miRNA precursors was sufficient to inhibit up to approximately 90% of osteoclast differentiation, RAW264.7 cells were treated with a combination of miRNAs at a reduced concentration of 1 pM total precursors.

RAW264.7 cells [3] = test: RANKL-induced osteoclast differentiation, TRAP staining; assay type: cell-based, murine; conditions: for osteoclast differentiation / TRAP+ osteoclasts: 6 days
Excerpt: HeLa and RAW264.7 cells (American Type Culture Collection, ATCC) were maintained in Dulbecco's modified Eagle's medium (DMEM) supplemented with 10% fetal bovine serum (FBS), penicillin/streptomycin (GIBCO), and fungizone. MOCP-5 cells were maintained in αMEM with 10% FBS and antibiotics. MDA-MB-231 parental cells (ATCC) and all sublines (SCP2, SCP4, SCP6, SCP28, SCP46) were maintained in DMEM with 10% FBS and antibiotics. The murine 4T1 and 4T1.2 cells, and human TSU-Pr1, and TSU-PR1-B2 cells were similarly maintained in DMEM with 10% FBS and antibiotics. For osteoclast differentiation assays, cells were treated with indicated concentration of RANKL in DMEM plus 10% FBS, with media changes performed every 2 days. Primary osteoclasts were isolated from bone marrow cells flushed from the tibia of 6-week-old wild type Balb/c mice and filtered through a […] cell-strainer before overnight culture in aMEM with 10% FBS. The following day 1×10^6 non-adherent cells were plated in 6-well plates supplemented with 50 ng/mL M-CSF for 2 days, followed by 50 ng/mL RANKL for an additional 4-5 days, with media changes every 2 days. Human osteoclasts were obtained from Lonza (2T-110) and differentiated by treatment with 33 ng/ml M-CSF and 66 ng/ml RANKL. CM was collected from the indicated sub-confluent tumor cells grown in DMEM with […] for 24 hours. The CM was passed through a 0.2 μm filter before addition to 1×10^5 RAW264.7 or MOCP-5 cells in a 6-well plate. The media was replaced with fresh CM daily. Cells were TRAP stained on day 6 using a leukocyte acid phosphatase kit (Sigma) and TRAP^+-multineucliated cells were quantified as mature osteoclasts. […]

[4] = tested on: Pu.1, Nfatc1, Ctsk in RAW264.7 cells; test: Western blot of Pu.1, Nfatc1, Ctsk after miRNA transfection and RANKL; assay type: cell-based, murine; conditions: transient miRNA transfection, 50 ng/ml RANKL
Experimental: SDS lysis buffer (0.05 mM Tris-HCl, 50 mM BME, 2% SDS, 0.1% Bromophenol blue, 10% glycerol) was used to collect protein from cells. Samples were sonicated and heat denatured protein was equally loaded, separated on a 10% SDS-page gel, transferred onto a pure nitrocellulose membrane (BioRad), and blocked with 5% milk. Primary antibodies for immunoblotting included: anti-IκBα (1:1000 dilution, Cell signaling, 44D4), anti-p-p65 (1:500 dilution, Santa Cruz Biotechnology), anti-Pu.1 (5 μg/ml, Abcam, AB88082), anti-Nfatc1 (1 μg/ml, Abcam, AB25916), anti-Ctsk (4 μg/ml, Abcam, AB19027), anti-β-actin (1:5000 dilution, ABcam), for loading control. Membranes were incubated with horseradish peroxidase (HRP)-conjugated anti-mouse secondary antibody (1:2000 dilution, GE Healthcare) or anti-rabbit secondary antibody (1:2000 dilution, GE Healthcare) for 1 h and chemiluminescence signals were detected by ECL substrate (GE Healthcare).
To better examine the capacity of the miRNAs to inhibit osteoclast differentiation, osteoclast markers were examined in RAW264.7 cells transfected with the miRNA of interest, followed by RANKL treatment. FIG. 5F illustrates Western blot analysis for Pu.1, Nfatc1, or Ctsk in RAW264.7 cells after transient transfection with indicated miRNA and treatment with 50 ng/ml RANKL. Data in the figure represent average ±SEM; p values were based on Student's t-test.

RAW264.7 cells [5] = test: Chemotaxis assay of RAW264.7 cells; assay type: cell-based, murine; conditions: series of sICAM1 concentrations
Experimental: Chemotaxis assay was performed as described (Lu et al., 2011) with the following modifications: 10^5 RAW264.7 cells in 100 μl of 0.5% BSA in DMEM were seeded into the upper chamber of 8 μm pore transwell inserts (BD Bioscience) in a 24-well plate. 300 μl of 0.5% BSA in DMEM containing a series of concentrations of recombinant ICAM1 (R&D Systems) was added to the bottom chamber. After 8 h in culture, methanol was added to the bottom chamber to fix migrated cells. Cells in the upper chamber were removed with a cotton swab and stained for 30 mins in 0.2% crystal violet for quantification using a microscope.

[6] = tested on: osteoclast marker genes in RAW264.7 cells; test: qRT-PCR of osteoclast marker genes; assay type: cell-based, murine; conditions: sICAM1 together with 50 ng/ml RANKL versus RANKL alone
Experimental: as §1

Molecule: O=C(Nc1cc(Cl)cc2c1[nH]c1cnccc12)c1cccnc1 [PS1145]
sICAM1-induced miRNA expression changes [1]: abrogated | sICAM1-induced miRNA expression changes ([1]; listed as PS1154): higher levels of miRNA expression

decrease in osteoclast differentiation of RAW264.7 cells induced by 30 ng/ml RANKL, with 200 ng/ml OPG (RANKL): > 80%
Molecule: OPG (receptor)

B1: miR-33a: miRNA, SEQ ID NO: 74; delivered as pre-miRNA precursor; down-regulated during osteoclastogenesis (nucleic acid, listed as Homo sapiens)
chain: CUGUGGUGCAUUGUAGUUGCAUUGCAUGUUCUGGUGGUACCCAUGCAAUGUUUCCACAGUGCAUCACAG
modifications: pre-miRNA precursor hairpin, chemistry not given here
bone resorption (osteoclast activity) (RAW264.7 cells [2]): only a small decrease in bone resorption | osteoclast maturation and activity (RAW264.7 cells [3]; all models tested): Partial inhibition | expression of Pu.1, Nfatc1, Ctsk (Western blot) [4]: retained expression of all three osteoclast genes

B2: sICAM1: soluble ICAM1, the cleaved extracellular domain of ICAM1; recombinant ICAM1 (R&D Systems, 796-IC-050) (protein)
chain: QVSIHPREAFLPQGGSVQVNCSSSCKEDLSLGLETQWLKDELESGPNWKLFELSEIGEDSSPLCFENCGTVQSSASATITVYSFPESVELRPLPAWQQVGKDLTLRCHVDGGAPRTQLSAVLLRGEEILSRQPVGGHPKDPKEITFTVLASRGDHGANFSCRTELDLRPQGLALFSNVSEARSLRTFDLPATIPKLDTPDLLEVGTQQKLFCSLEGLFPASEARIYLELGGQMPTQESTNSSDSVSATALVEVTEEFDRTLPLRCVLELADQILETQRTLTVYNFSAPVLTLSQLEVSEGSQVTVKCEAHSGSKVVLLSGVEPRPPTPQVQFTLNASSEDHKRSFFCSAALEVAGKFLFKNQTLELHVLYGPRLDETDCLGNWTWQEGSQQTLKCQAWGNPSPKMTCRRKADGALLPIGVVKSVKQEMNGTYVCHAFSSHGNVTRNVYLTVLYHSQNN
RAW264.7 cell migration (RAW264.7 cells [5]): increased migration in a dose dependent manner | expression of miRNAs downregulated during osteoclastogenesis ([1]; 50 ng/ml sICAM1, magnified after co-treatment with RANKL): significant inhibition | osteoclast differentiation (RAW264.7 cells [3]; 50 ng/ml sICAM1 alone): not sufficient to induce differentiation | time to osteoclast differentiation (RAW264.7 cells [3]; 50 ng/ml sICAM1 and 50 ng/ml RANKL together): ≤ 2 days | osteoclast differentiation (RAW264.7 cells [3]; 50 ng/ml sICAM1 combined with 10 ng/ml RANKL): additive effect | TRAP+ osteoclasts (RAW264.7 cells [3]; 50 ng/ml sICAM1 with 4 ng/ml RANKL): high levels | TRAP+ osteoclasts (RAW264.7 cells [3]; low levels of sICAM1 with 4 ng/ml RANKL): no effect | time course of osteoclast marker gene expression [6]: reduced the time necessary for osteoclast differentiation
